Publication PMC5880214

T1: AtPOT1a (Arabidopsis thaliana, UniProt Q56Y52 1-467)
T1 sequence: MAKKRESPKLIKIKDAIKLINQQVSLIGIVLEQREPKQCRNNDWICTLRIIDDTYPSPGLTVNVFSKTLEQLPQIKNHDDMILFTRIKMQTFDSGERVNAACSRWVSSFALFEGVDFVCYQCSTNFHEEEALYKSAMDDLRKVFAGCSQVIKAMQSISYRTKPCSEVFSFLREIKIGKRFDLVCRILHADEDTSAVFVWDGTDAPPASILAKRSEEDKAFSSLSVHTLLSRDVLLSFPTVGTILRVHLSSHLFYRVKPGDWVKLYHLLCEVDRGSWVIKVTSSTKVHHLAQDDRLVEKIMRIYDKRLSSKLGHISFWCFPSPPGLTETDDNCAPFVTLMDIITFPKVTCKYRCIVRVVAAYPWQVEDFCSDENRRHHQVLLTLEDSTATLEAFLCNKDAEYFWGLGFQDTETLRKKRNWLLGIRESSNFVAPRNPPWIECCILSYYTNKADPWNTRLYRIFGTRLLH

T2: AtPOT1b (Arabidopsis thaliana, UniProt Q6NKX5 1-454)
T2 sequence: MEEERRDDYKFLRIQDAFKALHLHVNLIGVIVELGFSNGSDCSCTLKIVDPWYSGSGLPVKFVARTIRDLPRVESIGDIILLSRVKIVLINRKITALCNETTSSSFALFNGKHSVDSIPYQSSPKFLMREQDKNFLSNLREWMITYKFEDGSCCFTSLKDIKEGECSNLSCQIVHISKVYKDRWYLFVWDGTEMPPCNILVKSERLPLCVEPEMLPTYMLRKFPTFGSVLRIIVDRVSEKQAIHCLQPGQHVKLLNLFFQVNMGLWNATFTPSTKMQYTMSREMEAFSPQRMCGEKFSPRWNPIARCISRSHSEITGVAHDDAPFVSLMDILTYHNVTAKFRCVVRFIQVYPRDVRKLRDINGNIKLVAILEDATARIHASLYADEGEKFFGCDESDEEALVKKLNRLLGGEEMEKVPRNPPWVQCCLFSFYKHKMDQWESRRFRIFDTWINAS

T3: AtPOT1a_N (Arabidopsis thaliana, UniProt Q56Y52 1-300)
T3 sequence: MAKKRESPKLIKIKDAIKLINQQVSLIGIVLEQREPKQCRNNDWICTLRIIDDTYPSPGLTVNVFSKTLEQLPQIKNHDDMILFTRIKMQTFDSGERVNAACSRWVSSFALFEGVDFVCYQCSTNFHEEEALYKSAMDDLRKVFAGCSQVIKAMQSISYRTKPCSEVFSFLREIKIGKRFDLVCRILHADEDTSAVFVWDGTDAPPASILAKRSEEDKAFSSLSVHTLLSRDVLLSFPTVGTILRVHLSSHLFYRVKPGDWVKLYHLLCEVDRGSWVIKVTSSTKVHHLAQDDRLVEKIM

T4: AlPOT1b (Arabidopsis lyrata, UniProt B7T1J2 1-450)
T4 sequence: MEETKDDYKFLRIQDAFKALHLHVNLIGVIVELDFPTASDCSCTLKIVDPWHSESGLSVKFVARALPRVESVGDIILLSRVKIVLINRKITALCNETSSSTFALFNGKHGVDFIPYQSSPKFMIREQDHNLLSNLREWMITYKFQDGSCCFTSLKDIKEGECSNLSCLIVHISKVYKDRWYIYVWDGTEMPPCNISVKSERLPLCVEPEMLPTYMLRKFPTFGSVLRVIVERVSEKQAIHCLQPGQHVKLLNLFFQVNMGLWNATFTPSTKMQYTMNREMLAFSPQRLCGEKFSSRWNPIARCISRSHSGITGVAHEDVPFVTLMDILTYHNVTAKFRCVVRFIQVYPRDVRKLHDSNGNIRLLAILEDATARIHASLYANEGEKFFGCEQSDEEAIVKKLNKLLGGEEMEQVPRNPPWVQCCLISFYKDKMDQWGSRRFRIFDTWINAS

T5: AlPOT1a (Arabidopsis lyrata, UniProt B7T1J1 1-467)
T5 sequence: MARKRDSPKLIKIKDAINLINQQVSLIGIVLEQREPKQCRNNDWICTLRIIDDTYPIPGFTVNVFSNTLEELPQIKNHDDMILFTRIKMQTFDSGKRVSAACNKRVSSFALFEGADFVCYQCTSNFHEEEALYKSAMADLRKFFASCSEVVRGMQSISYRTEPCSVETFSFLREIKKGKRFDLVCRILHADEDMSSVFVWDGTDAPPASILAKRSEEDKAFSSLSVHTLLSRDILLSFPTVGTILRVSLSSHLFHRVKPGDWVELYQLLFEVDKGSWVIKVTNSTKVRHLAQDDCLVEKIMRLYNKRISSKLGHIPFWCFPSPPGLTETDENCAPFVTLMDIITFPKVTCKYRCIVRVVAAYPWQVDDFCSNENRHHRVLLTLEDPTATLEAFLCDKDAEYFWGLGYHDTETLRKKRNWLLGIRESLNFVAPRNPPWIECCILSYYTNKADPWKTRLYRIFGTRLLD

T6: AtPOT1b_N (Arabidopsis thaliana, UniProt Q6NKX5 1-300)
T6 sequence: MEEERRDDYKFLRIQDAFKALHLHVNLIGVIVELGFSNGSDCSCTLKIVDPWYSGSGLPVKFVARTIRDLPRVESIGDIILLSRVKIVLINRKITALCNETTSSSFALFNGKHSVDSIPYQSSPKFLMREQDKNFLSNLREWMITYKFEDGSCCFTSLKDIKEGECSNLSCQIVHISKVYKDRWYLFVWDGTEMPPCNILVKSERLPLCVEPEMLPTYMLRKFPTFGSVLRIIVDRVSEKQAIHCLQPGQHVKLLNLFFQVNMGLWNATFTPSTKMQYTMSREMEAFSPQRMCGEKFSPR

T7: BoPOT1a (Brassica oleracea (cauliflower, …, UniProt B7T1J7 1-456))
T7 sequence: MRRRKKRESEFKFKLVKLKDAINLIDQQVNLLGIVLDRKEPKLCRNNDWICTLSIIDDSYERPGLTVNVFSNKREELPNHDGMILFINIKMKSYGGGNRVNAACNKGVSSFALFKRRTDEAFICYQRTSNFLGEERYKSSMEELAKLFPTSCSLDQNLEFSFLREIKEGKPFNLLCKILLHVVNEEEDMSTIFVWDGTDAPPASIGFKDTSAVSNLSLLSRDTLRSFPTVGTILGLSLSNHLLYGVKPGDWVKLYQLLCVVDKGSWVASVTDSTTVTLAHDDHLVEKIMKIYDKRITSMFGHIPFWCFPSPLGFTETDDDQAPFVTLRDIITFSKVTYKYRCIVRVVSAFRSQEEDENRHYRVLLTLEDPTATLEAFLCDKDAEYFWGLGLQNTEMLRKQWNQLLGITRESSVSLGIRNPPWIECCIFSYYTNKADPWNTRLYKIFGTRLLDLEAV

T8: BoPOT1b (Brassica oleracea (cauliflower, …, UniProt B7T1J8 1-450))
T8 sequence: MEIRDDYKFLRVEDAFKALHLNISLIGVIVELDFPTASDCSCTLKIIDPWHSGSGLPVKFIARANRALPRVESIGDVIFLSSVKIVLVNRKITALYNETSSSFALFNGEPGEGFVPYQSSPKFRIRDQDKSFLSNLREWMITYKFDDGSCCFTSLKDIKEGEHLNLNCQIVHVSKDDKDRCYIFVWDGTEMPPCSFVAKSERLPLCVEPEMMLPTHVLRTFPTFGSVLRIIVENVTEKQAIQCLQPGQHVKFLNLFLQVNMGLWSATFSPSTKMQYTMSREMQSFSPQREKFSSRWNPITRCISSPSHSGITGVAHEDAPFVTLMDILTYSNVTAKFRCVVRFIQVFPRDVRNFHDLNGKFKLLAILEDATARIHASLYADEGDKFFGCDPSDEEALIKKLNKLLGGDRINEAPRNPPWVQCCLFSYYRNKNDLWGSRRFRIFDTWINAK

T9: mPOT1a_N (OB-fold domains of mouse POT1a) (mouse, UniProt Q91WC1 1-299)
T9 sequence: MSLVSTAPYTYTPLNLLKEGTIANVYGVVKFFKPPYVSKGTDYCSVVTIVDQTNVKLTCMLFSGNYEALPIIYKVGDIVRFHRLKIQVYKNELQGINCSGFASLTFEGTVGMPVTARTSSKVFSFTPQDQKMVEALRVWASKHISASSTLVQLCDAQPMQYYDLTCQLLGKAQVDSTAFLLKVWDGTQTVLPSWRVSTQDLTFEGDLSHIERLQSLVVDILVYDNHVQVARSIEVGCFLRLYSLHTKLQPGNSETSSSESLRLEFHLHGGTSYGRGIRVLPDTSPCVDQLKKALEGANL


Legend:
Experiment in all cases: EMSA
AtPOT1a = target: T1, AtPOT1a
AtPOT1b = target: T2, AtPOT1b
AtPOT1a_N = target: T3, AtPOT1a_N
AlPOT1b = target: T4, AlPOT1b
AlPOT1a = target: T5, AlPOT1a
AtPOT1b_N = target: T6, AtPOT1b_N
BoPOT1a = target: T7, BoPOT1a
BoPOT1b = target: T8, BoPOT1b
[1] = target: T9, mPOT1a_N (OB-fold domains of mouse …)

Binder | binding result (AtPOT1a) | binding result (AtPOT1b) | binding result (AtPOT1a_N) | binding result (AlPOT1b) | binding result (AlPOT1a) | binding result (AtPOT1b_N) | binding result (BoPOT1a) | binding result (BoPOT1b) | binding result [1]
CCCTAAACCCTAAACCCTAAACCCTAAACCCTAAA (ssDNA) [C-rich plant telomere repeat, five copies] | no binding | no binding | – | – | – | – | – | – | –
TTTAGGGTTTAGGG (ssDNA) [(TTTAGGG)2] | no binding | no binding | no binding | no binding | no binding | no binding | no binding | no binding | –
GGTTAGGGTTAG (ssDNA) [(GGTTAG)2 vertebrate telomere repeat] | – | – | – | – | – | – | – | – | binds
TTTAGGGTTTAGGGTTTAGGGTTTAGGGTTTAGGG (ssDNA) [(TTTAGGG)5] | no binding | no binding | no binding | no binding | no binding | no binding | no binding | no binding | –
